Values of other authors as cited in PMC3367028.

Biological target: CD74 (Homo sapiens) (UniProt P04233)
Experiment: SPR

UniProt P04233, sequence (P04233 73-296): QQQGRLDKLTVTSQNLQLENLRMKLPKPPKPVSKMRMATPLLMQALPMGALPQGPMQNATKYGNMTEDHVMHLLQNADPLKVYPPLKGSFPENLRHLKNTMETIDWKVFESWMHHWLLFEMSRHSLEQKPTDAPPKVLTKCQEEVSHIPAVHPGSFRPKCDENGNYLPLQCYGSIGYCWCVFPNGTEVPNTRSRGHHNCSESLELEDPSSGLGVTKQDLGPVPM

Kd: 5.42 nM
Substance: D-DT (from UniProt P30046)
